In patent US6353153B1, “Enhanced transport with a plastid membrane transport protein” (priority 1996, dated 2002):

Experiments:
[1] = system: alkaline phosphatase translocation in E. coli JM109 (DE3); assay: Induction and transport of alkaline phosphatase under phosphate starvation (immunoblot); assay type: cell-based, Escherichia coli; details: low phosphate (50 μM), cells harvested at the two growth peaks
From the text: The directionality of the distribution of Bce44B in the cytoplasmic membrane and the capability of the bacterium to recognize and integrate Bce44B into the membrane raised the possibility that Bce44B may be functional as a foreign component of the bacterial protein transport apparatus. Functionality of Bce44B was therefore assessed by monitoring two transported bacterial proteins, alkaline phosphatase and , β-lactamase. Alkaline phosphatase is a single copy gene and is transported into the periplasm upon induction by phosphate starvation (50 μM) (Torriani et al. (1960) Biochim. Biophys. Acta. 38:460). The growth characteristics of Bce44B-containing bacteria were compared to those of a strain expressing Oee1-Dhfr, a chimeric chloroplast protein precursor. The expression vector used in the Oee1-Dhfr transformed strain was the same as the one in the Bce44B transformed cells. Growth was monitored in M9 minimal media with growth-permissive phosphate levels or with low phosphate levels (50 μM).
The induction and analysis of alkaline phosphatase was performed as described by Torniani et al. (1960) Biochim. Biophys. Acta. 38:460. […]

Arabidopsis thaliana = assay: Seed size of transgenic plants carrying the CaMV-Bce44B-NOS transgene; assay type: in vivo; details: primary generation of transgenic plants
From the text: Transgenic plants (Brassica napus, Arabidopsis thaliana and Lycopersicon esculentum) with altered plastid protein transport capacity were produced by introducing a transgene construct consisting of DNA encoding the Bce44B protein and a 5′ untranslated region immediately upstream of the Bce44B coding sequence. Expression of the construct was obtained by linking the cauliflower mosaic virus 35S promoter (Odell, J. T. et al. (1985) Nature 313:810) upstream. Transcriptional termination was facilitated by the gene encoding nopaline synthase (NOS) found in Agrobacterium Ti plasmids or their derivatives such as pBI101 (Clontech). Construction of the 35S CAMV-Bce44B-NOS transgene construct is diagrammed in FIG. 6.
For the seed transformation protocol (Feldmann, K., (1992) In: Methods in Arabidopsis Research (eds. C. Koncz, N. H. Chua, J. Schell) pp 274-289), 2.4 grams of Arabidopsis thaliana (ecotype Wassilewskija) seeds were surface sterilized for 8 minutes in 5.25% (wlv) sodium hypochlorite containing 0.15% (v/v) Tween 20, then rinsed 6-7 times with sterile water. The seeds were apportioned among 40 125 ml flasks containing 40 ml cocultivation medium (CCM) (1×MS salts, 40 g/l sucrose, 10 mg/l thiamine, […] pyridoxine, […] nicotinic acid and 100 mg/l inositol, pH 6.0 with KOH). […]

B1: Bce44B: plastid transport protein, Brassica napus 44 kDa chloroplast envelope protein, member of Com44/Cim44, encoded by SEQ ID NO:1 (protein)
chain: MQTAMKTMMNQMNTQNSQFNNPGFPTGAGAGAGSPFPFPFPPQTSPTTSPFQPQSQSSGATVDLTATKVDRPPVSKPQPTPIPPTKSIEVYKPSVVVEENKAMKEEKNYAFEDVSPEETTKESPFSNYEEVSETSAPKETRLFDDVLQNGAAPANGATASDVFQSLGAGKGWAGGSVEVLEKMIEYPTFQKMLYPHLPEEMRNPESFKWVRKNPQYRQQLQDMLNNMSESGEWDKRMTETLKNFDPNSPEVKQGFDQLGLTPEEVISKIMENPDVSMAFQNPRVEAALMDCSENPMNIMKYQNDKEVMDVFNKISQLFPGLTG
level of processed alkaline phosphatase relative to Oee1-Dhfr-expressing cells [1]: higher level | seed size relative to wildtype counterparts or pEND4K-only control plants (Arabidopsis thaliana): approximately twice
